Reference: publication PMC8789516, “Polyphenol oxidase and enzymatic browning in apricot (Prunus armeniaca L.): Effect on phenolic composition and deduction of main substrates” (Current Research in Food Science, 2022)

B1: L-PaPPO (recombinant latent apricot polyphenol oxidase) (Prunus armeniaca; A376C/R416N/S149R/V417C) (protein)
chain: DPIAPPDLTTCKPAEITPGGSETVPCCPPVTTKIKTFKPDLSIPLRTRPAAHQVTDEYLAKFKKAQAAMRALPDDDPRSMVQQAKVHCAYCNGAYPQVGFTDNDIQVHFSWLFFPFHRMYLYFYERILGKLIDDPTFALPYWNWDSPVGFPIPDIYTDTSSPLYDQYRNADHQPPVLVDLSYGGKDDDVDEQTRIDENLAIMYRQMVSGAKTPDLFFGHAYRAGNLNTGKYPGTIENMPHNNIHIWVGDPSQTHQEDMGNFYSAGRDPLFYAHHCNVDRMWNIWKTLGGKRKDITDTDWLDAEFLFYDENAELVNCKVRDSLEPEKQLRYNYEPVSLPWLFTKPTARKTKNKTKAKVAATQLTSKFPATLVEVTTVEVARPKPRKRSKKEKVDEEELLIIKDIEFEGTEAVKFDVFINDDAESLSRRDKSEFAGSFVHVPQGKTTKAKTKTNLKLGITDLLEDLGAEDDSSVLVTLVPRVSNSPITIGGFKIEYSS
notes: latent form Asp102-Ser597 (active plus C-terminal domain), signal peptide removed; Gly-Pro-Met left after HRV 3C cleavage of GST; E. coli SHuffle T7; intron removed

Tests used:
Details in all cases: pH 7.0, 50 mM Tris-HCl, 25 °C, 2 mM SDS as activator of the latent enzyme
[1] = target: T1, L-PaPPO (recombinant latent apricot polyphenol oxidase) (Prunus armeniaca, UniProt O81103, S149R/A376C/R416N/V417C)
T1 construct: gene PPO

[2] = substrate: NCCc1ccc(O)c(O)c1; test: purified protein; format: biochemical, Prunus armeniaca
[3] = substrate: NCCc1ccc(O)cc1; test: purified protein; format: biochemical, Prunus armeniaca

Molecule | Km [1] [µM] | Km [2] [µM] | kcat [2] [s⁻¹] | kcat/Km [2] [M⁻¹ s⁻¹] | Km [3] [µM] | kcat [3] [s⁻¹] | kcat/Km [3] [M⁻¹ s⁻¹]
O=C(/C=C/c1ccc(O)c(O)c1)O[C@@H]1C[C@@](O)(C(=O)O)C[C@@H](O)[C@@H]1O [Neochlorogenic acid] | 1470 ± 290 |  |  |  |  |  | 
O=C(/C=C/c1ccc(O)c(O)c1)O[C@@H]1C[C@](O)(C(=O)O)C[C@@H](O)[C@H]1O [Chlorogenic acid] | 1520 ± 100 |  |  |  |  |  | 
B1 |  | 1610 ± 160 | 162 ± 3.3 | 99800 ± 2900 | 4480 ± 360 | 1.42 ± 0.13 | 318 ± 29
